Results: the nanobody polyreactivity screen of Harvey et al. (2022)

Test: yeast display, Sf9 membrane polyspecificity reagent, FACS + sequencing; frameworks hold sequencing errors
Method in brief: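 Galactose induction of a Saccharomyces cerevisiae BJ5465 synthetic nanobody display library ran 36–48 hours. The cells were then stained for 1 hour at 4 °C with 10% biotinylated, detergent-solubilized Sf9 membrane reagent, pulled down on streptavidin microbeads and FACS-sorted into low and high (top ~1%) gates on expression and reagent-binding fluorescence. Labels for polyreactivity follow the gate of origin.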

Row | Sequence | polyreactivity (PSR sort gate)
1 | QVQLVESGGGLVQAGGSLSLSCDASGSTFYTYAMGWSRQEPGKERELVAAITSSGGSTYYADSVKGRFTISRDNAKNTVYLLMNSLKPEDTAVYYCAARVLGGFGFWGQGTQVTVSS | high polyreactivity
2 | QVQLVESGGGLVQAGGSLRLSCAASGRIFTYYTMGWYRQAPGKERELVAAISWSGGRTYYADSVKGRFTISRDNAKNTVYLQMNSLKPEDTAVFYCARLQDSRESPWRGYYWGQGTQVTVSS | high polyreactivity
3 | QVQLVESGGGLVQAGGSLRLSCAASGRTIPNVMGWYRQAPGKERELVAAISSSVGSTSYADSVKGRFTISRDNAKNTVYLQMNSLKPEDTAVYYCAARYYYRDWVGIISTYYYWGQGTQVTVSS | high polyreactivity
4 | QVQLVESGGGLVQAGGSLRLSCAASGFTFSKYTMGWYRQAPGQERELVARITRRGGSTYYADSVKGRFTISRDNAKNTVYLQMNSLKPEDTAVYYFAADVYAYNGEYDYWGQGTQVTVSS | high polyreactivity
5 | QVQLVESGGGLVQAGGSLRISCAASGFTFVINEMGWYRPAPGKERELVADITSGGDTYYADSVKGRFTISRDNAKNTVYLQMNSLKPEDTAVYYCAAYIYPDWIYLLYGYWGQGTQVTVSS | low polyreactivity
6 | QVQLVESGGGLVQAGGSLRLSCAASGNIFDRYVMGWYRQAPVKERELVAAISVSGGSTYYADSVKGRFTISRDNEKNSVYLQMNCLKPEDTAVYYCAAHSRLINWYDYWGQGTQVTVSS | high polyreactivity
7 | QVQLVESGGGLVQAGGSRSLSCAASGRTFTLNVMGWYRQAPGKERELVAAISTSSGRTYYADSVKGRFTISRDNAKNTVYLQMNSLKPEDTAVYYCNAVAHRQAQGDWGQGTQVTVSS | low polyreactivity
8 | QDQLVESGGGLVQAGGSLRLSCAASGRTLYYYTMGWYRQAPGKERELVAAITWSGGSTYADSVKGRFTISRDNAKNTVYLQMNSLKPEDTAVYYCAAVRTSRFDYWGQGTQVTVSS | high polyreactivity
9 | QVQLVESGGGLVQAGGSLRLSCAASGITIGYNAMGWYRQAPGKERELVATIRSGGSTYYADSVKGRFTISRDNAQKTVYLQMNSLKPEDTAVYYCNRDGYYYSTFDFDYWGQGTQVTVSS | low polyreactivity
10 | QVQLGESGGGLVQAGGSLRLSCAASGSTFNRYAMGWYIQAPGKERELVAAITVRGNTYYADSVKGRFTISRDNAKNTVDVQMNSVKPEDTAVYYCNAVSASPSYVYRPYFKRGYWGQGTQGTVSS | high polyreactivity
11 | QVQLVESWEGLVQAGGRLRLSCAASGSIFRPYTMGWYRQAPGKERELVATISSTGITNYADSVKGRFTISRDNAKITVYLQMNSLKPEVTAVYYCAAGLWFSYDYWGQGTQVTVSS | high polyreactivity
12 | QVQLVESGGGLVQAGGSLRLSCAASGSIFVGNAMGWYRQAPGKERELVAAINSGGSTYYADSVKGRFTISRDNAKNTVYLQMNSLKPEDTAVYYCAAEGTYSYYLYEYWGLGTQVTVSS | low polyreactivity
13 | QVQLVESGGCLVQAGGSLRLSCAASGRTSVIYAMGWYRQAPGKERELVASIRRGGSTSYADSVKGRFTISRDNAKNTVYLQMNSLKPEDTAVYYCAADRYTWRKSYDYWGQGTQVTVSS | high polyreactivity
14 | QVQLVESGGGLVQAGGSLRLSCAASGRTIADNAMGWYRQAPGKEREVVATISYSDSTTYYADSVKGRFTISRDNAKNTVYLQMNSLKPEDTAVYYCAAERLTHWGAFAAYDYWGQGTQVTVSS | low polyreactivity
15 | LVQLVESGGGVVQAGGSLRLSSAASGSIFRNNTMGWYRQAPGKERELVAAISGRGTRTSYADSVKGRFTISRDNAKNTVYLQMNSLKPEDTAVYYCAARSWYLYYWGQGTQVTVSS | low polyreactivity
16 | QVQLVESGGGLVQAGGSLRLSSAASGRTFRRYAMGWYRQAPGKERELVATITNAGSTYYADSVKGRFTISRDNAKNTVYLPMNSLKPEDTAVYYCAARVPYKSDYWGQGTQVTVSS | low polyreactivity
17 | QVQLVESGGGLVQAGGSLRLSCAASGSTFSSLIMGWYRQAPGKERELVAAISRSGGRTYYADSVKGRFTISRDNAKNTVYLQMNSLKPEDTAVYYCAAPWFRDTRGYSLYDYWGQGTQVTVSS | high polyreactivity
18 | QVQLVESGGGLVQAGGSLRLSCAASGSTFGGYVMGWYRQAPGKERELVAAISGNGASTTYADSVKGRFTISRDNAKSTFYLQLNSVKPEDTAVYYCGAMYRKAHSDYDYWGQGTQVTVSS | low polyreactivity
19 | QVQLVESGGGLVQAGGSLRLSCAASGFILRSYGMAWYRKAPGKERELVAAITRGGSTYYADSVKGRFTISRDNAKNTVYLQMNSLKAEDTAVYYCAARTRYYSQQFDYWGQGTQVTVSS | high polyreactivity
20 | QVQLVESGGGLVQAGGSLRLSCAASGSIFTYYAMGWYRQAPGKERELVAAISLDGGSTYYADSVKGRFTISRDNAKNTVYLQMNSLKPEDTAVYYCAAYPTYPDEYWGQGTQVTVSS | low polyreactivity
21 | QVQLVESRGGLVQAGGSLRLSCAASGIIFSKNAMGWYRQAPGKERELVATINRSGGSTYADSVKGRFTISRDNAKNTVYLQMNSLKPEDTAVYYCAKRASPFWRGYDSCGQGTQVTVSS | high polyreactivity
22 | QVQLVDSGGGLVQAGGSLRLSCAASGITFYYYAMGSYRQAPGKETELVAAISSRGGSTYYADSVKGRFTISRDNAKNTVYFQMNSLKQEDTAVYYCAADYYSSYYSSYIKSYYWGLGTQVTVSS | high polyreactivity
